The nature of this data set: soluble on expression in E. coli; label from the status in PepcDB or PDB records.
As to “MWKAVMNAWNGTESQSKNVSNIQSYSFEDMKRIVGKHDPNVVLVDVREPSEYSIVHIPASINVPYRSHPDAFALDPLEFEKQIGIPKPDSAKELIFYCASGKRGGEAQKVASSHGYSNTSLYPGSMNDWVSHGGDKLDL”, the “soluble on expression in E. coli” value was “soluble”.
Regarding “MWLFEESAVGFCSNSGVIDNKHAGYTGTGFIDTENAVGASIVWSLSAASAKTYTAQIRFGNGGTSARRATVVVNDSQIKTLDFPTNSNWTQWQTVNVDIPLKAGTNSIKLVAETADGLANIDSIRVTGNGITPAACPLEHHHHHH”, the “soluble on expression in E. coli” value is “soluble”.
Then “MWNETWNEITNELIQLSREPESEIPRITAEQRAYLKLVRPAAFVEGIAVLRVPHSRAKETIETHLGQAITSVLSRRMGRPFTVAVTVDPTLDVIQDLPHDVPEQHIVQHHVPEHPHYSPVSQGYPPHYAPEQSEYNTEYSDEYPSGWATYHVQTPQPSQSSQSAQQQPAQRMPDRRRYA”, with “not soluble”.
For “MWRRHYKLVPQIDTRDCGPAVLASVAKHYGSNYSIAYLRELSKTNKQGTTALGIVEAAKKLGFETRSIKADMTLFDYNDLTYPFIVHVIKGKRLQHYYVVYGSQNNQLIIGDPDPSVKVTRMSKERFQSEWTGLAIFLAPQPNYKPHKGEHHHHHH” the value was “soluble”; for “MYAAYQTNGPARPIARTAAFTKEDDLLVDMARQNNLRGRILTYCVAGTFGLLSPNYLHASAATANWDINQIEISGLSESSVGAISESARDIAHIRAVTKISVSELSRVFGVSRQAVHEWIKGGTLSQRNAQRLSELARATDVFIEAEIEASPQVFRRKIAGGQSILDAVRENGNAVELAKTLAATLVRESQQRQRLAARLAGRSATPGTSTEFGSPHLDEDA”, “not soluble”; for “MYDAALGRWHAVDPMSEKYYSWSPYTYCKNNPVLRIDLDGKDDYVISRSGRLFNETPIDKRGKGSTDNLYLSSDRSISVTVNQGLLGEMHSMQAKEQKENRVKKSYGSTQDLETAATVFKFAADHTTVEWKLDVYDDNGTRTAVVATDRDPYGVDNGVYAQNKLSVKGEKVIDIHSHLPGGTKGGAGNDFNLAKPQRKNAVYMKDNRVSTDKKDMIYEYTKNASRVNSIRVYDATDLLQYIKRK”, “not soluble”.
Then “MYDCAAPSLSTGRNTMNHTAELEKALTDLRHITGISMEIHAETEEEVTKALEQLKLLSSAYKEKYNKIHFLQSLMTDSIPTYNVYDRAARLHIAPEEPRILYLLETSHSLDEDISEILKNLFPSQSGAFRIPLTEASCAILCPVRSLADSSQETVHLTARMIVDTVNAEALARVRVSYSKTLHNLLDLSTAFRETSLALKVGKLFYSEQTVFPYNRLGIGRLIYRLPTSLCENFLHEIFGEEIPQALDEETTATVNKFLQNNLNIAETSRQLHMHRNTLIYRLEQIEKRTGLDLRQFEDAMTFKIASMVMNYLYTERNIPHE”, with “not soluble”; and “MYEGLLIDIDYLLNVVKELKINFDKKIKTLNLLIERNIPIVLYTENNKEYVDTIMKYLKIKEPAIIVEGAQIYSPFDLSYEAVFPLSINTVCKLGNWAMDRKMDMSISTDKKVIDYSEWLKELRQVNYKNAGDKLPSAVKVDICMKNDDKRIELLNFIGKNNLECYAHMYLNHVACINSIVDKGNTLKYLANKKKWDIKKFAMIGDYSKDTSIFDEVGFLMSISDFTKDFEKNFDKTLKSDMMSIV”, with “soluble”.
Turning to “MYEYSFNPNIDHEPGSVESQQSTIYSDSDDSDDSFLDDEVIPPKEQAMRKIEFALADIKRQMDNKEKSLTLRISTSKSHFCLRYTAKRKGKLDRDLHCLHQVYDLLENDKRSTKRELYYEHKAVYGNQKYLDSSIKSICELLNESRANLNILSCGRGIIRGAITFLVENVGVIDARVQEVLITDALLFSNIISEADFILVVEKDTTFQKLMDENFQAMFPRGILATSKGYPDIATRNVLKMLSEKRKFPIYGLFDADPHGIEIYLTYKYGPTKEFAEGRGAFVPTIEWIGLFPTDFHRFTIDQSQCLPLVRTDFVKIEKMIPRSIQLGEIVVTRELDWMIQNKFKMELESINMCGQEYMARFLIAPRVMSIEKEIPIQPETIINEYHEDSQCSLSTDDDREAKDDDYIDSDAEEKFQNMIDNDSD”, the “soluble on expression in E. coli” value was “not soluble”.
Then “MYGLVNKAIQDMISKHHGEDTWEAIKQKAGLEDIDFFVGMEAYSDDVTYHLVGAASEVLGKPAEELLIAFGEYWVTYTSEEGYGELLASAGDSLPEFMENLDNLHARVGLSFPQLRPPAFECQHTSSKSMELHYQSTRCGLAPMVLGLLHGLGKRFQTKVEVTQTAFRETGEDHDIFSIKYEDSNLYDD”, with “soluble”; and “MYIVVSTGDRAARIASKLPDCIIIDRDPDSAERLKEKGFNVLNGDASNPEILARFDMGEKIILADNDDFNIKVVKTAKLLGLDVYAVAADEDKCWLYEVEGVSKICGSVEALLSTIFRKNRYFEIQVEAEMEGKTL”, with “not soluble”.
As to “MYKEDTIAAISTPHGAGGVGIIRISGDKAFEIAERIFRGKKDFKLIRSHTINYGKIVNPENGAVLDEVLLSKMEKPKTFTREDVVEINCHGGMVVLKNILELCIKEGARLAEPGEFTKRAFLNGRIDLSQAEAVIDLINSKTNESSKAAISQLEGKLSRKIKDARSKLIELLAHIEVTVDYPEHDIEEITGNMVYEEIGKIKEKLCDIVKSFERGRIIREGIDAVIIGKPNVGKSSLLNELSGKSKAIVTDIPGTTRDIIEEYININGIPLRIIDTAGIRETEDVVEKIGVEKTHRAIDEADLVIMMIDAKRGMDEDDNRILTMLGDKKLIILINKIDLVDEKQINEIESLLKGRKCIRTSVKEGTGISELENAITELFVQGEVSVNEEILLTNIRHKNLIDMAISSIEKAMESIDGSMPLDLVSIDITDAADYLGQITGESVSEDVMHEIFSKFCLGK”, the “soluble on expression in E. coli” value is “not soluble”.
For “MYKKRQRGEREREIKVEFAMHISIKTLEGKRIKLEVEDSSNTIDLKIHGEPTRELVVDLSPTPDTGAIMMIFIKTLTGRTNTYEVKGSDTIRELKAKHEEKEGIPVEQQRLIFQGRVLEDSKAISDYNIKHESTLHITLHQCGC”, the “soluble on expression in E. coli” value is recorded as “soluble”.
For “MYNDELIESSKIKWQLFLKGDDDAYAWLYSRYVQQLYQYGCRFTTDTEMVKDCVQDVFVNVYRQKDRYSSPPDNVKIYLMSSLRNSIFNVFNKGNLHDTYISNINYEFDLSVEEKLIETEDETSQKHTVAHLLNTLSPRQREIIYYRFFEGLDYSAICELMGLNYQSAYNLLQRSLSRLREMYGILPFFFLF” the value was “not soluble”.
Consider “MYQASCLFYFMTPVFFLLSTYPRNLLIGDSSTAFTKELIAKMNEVTNSAESTSSKRPGRPRKDGHDEKIIDATLRLIDSNRPVTVNAVVKESGVSRAAVYRRWPGLVDLVAEALDAGRAPVEIDTSGDIKETLIDGLFTNQAKTTGVSYPRQRFRKRLELVMSDQELQLAAAALEHHHHHH”, for which the “soluble on expression in E. coli” value is recorded as “not soluble”.
Then “MYQYDEYDQALVSERVAQFRDQIARRLDGELSEEEFLPLRLQNGLYLQKHAYMLRVAIPYGTLSAPQLRALAHVARHYDRGYGHFTTRQNIQFNWIELEQVGDILEHLAGAQMHAIQTSGNCVRNITTEAFAGVAADEWTDPRPLAEILRQWSTVNPEFLFLPRKFKIALSSAVEDRAAVQMHDIGLYLYRHPDAGELRLRVLVGGGLGRTPMLGQVIRDDLPWQHLLSYVEAILRVYNRYGRRDNKYKARIKILVKALGIEAFAREVEEEWQHLRDGPAQLTAEECQRVAERFVLPRYLPPADGELAYGSARAADPAFARWASRNVQAHKVPGYASVVLSTKPGASAPPGDVTAEQMERVADWAERYGFGEIRVAHEQNLVLPDVRLENLHALWREACAAGLGTPNQGLLSDIIACPGGDYCALANAKSIPIAQGIQQRFEDLDHLHDIGELSLNISGCMNACGHHHIGNIGILGVDKSGSEWYQVTLGGAQGKDSALGKVIGPSFSAAEVPAVIERIVETFTDLRVGPERFIDTFNRVGLEPFKARVYARMEEPA”, with “not soluble”; and “MYSRADRLLRQFSLKLNTDSIVFDENRLCSFIIDNRYRILLTSTNSEYIMIYGFCGKPPDNNNLAFEFLNANLWFAENNGPHLCYDNNSQSLLLALNFSLNESSVEKLECEIEVVIRSMENLYHILQDKGITLDTDYTHHHHHH”, with “soluble”.

These data come from the DeepSol protein solubility set.
